# According to paper PMC9482650, “Quantitative fragmentomics allow affinity mapping of interactomes” (Nature Communications, 2022):
# B1: KIRREL2, Q6UWL6 (peptide)
# chain: PSHPRLQTHV
# B2: GRIA2, P42262 (peptide)
# chain: NVYGIESVKI
# B3: RPS6KA3, P51812 (peptide)
# chain: GIKKITSTAL
# Biological target: AHNAK1, Q09666
# Test: holdup assay
# Design: key: below the threshold = too weak to quantify, mostly under pKd 3.1 to 4
# Details: plain residues with an end cap or a label only (N-terminal biotin on a linker: ado-ado)
# Chain of AHNAK1, Q09666 (Q09666 4-100): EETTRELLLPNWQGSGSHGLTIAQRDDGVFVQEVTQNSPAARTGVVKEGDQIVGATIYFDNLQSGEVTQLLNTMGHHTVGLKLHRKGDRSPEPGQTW
row,Binder,pKd
1,B1,below the threshold
2,B2,below the threshold
3,B3,below the threshold

# Biological target: T1, DFNB31_1, Q9P202
# T1 sequence (Q9P202 135-233, limits assumed, looked up): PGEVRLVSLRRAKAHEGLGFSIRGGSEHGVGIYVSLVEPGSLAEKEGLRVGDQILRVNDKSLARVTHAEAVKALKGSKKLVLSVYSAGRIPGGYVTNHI
# Test: holdup assay
# Design: key: below the threshold = too weak to quantify, mostly under pKd 3.1 to 4
# Details: plain residues with an end cap or a label only (N-terminal biotin on a linker: ado-ado)
row,Binder,pKd
1,B1,below the threshold
2,B2,below the threshold
3,B3,4.39

# Biological target: DLG1_3, Q12959
# Sequence (Q12959 457-571): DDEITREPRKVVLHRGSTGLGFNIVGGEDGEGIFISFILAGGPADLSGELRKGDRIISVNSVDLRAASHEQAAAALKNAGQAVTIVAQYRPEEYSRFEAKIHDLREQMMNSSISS
# Test: holdup assay
# Design: key: below the threshold = too weak to quantify, mostly under pKd 3.1 to 4
# Details: plain residues with an end cap or a label only (N-terminal biotin on a linker: ado-ado)
row,Binder,pKd
1,B1,below the threshold
2,B2,3.93
3,B3,3.99

# Biological target: T2, DLG3_1, Q92796
# T2 sequence (Q92796 125-227, limits assumed, looked up): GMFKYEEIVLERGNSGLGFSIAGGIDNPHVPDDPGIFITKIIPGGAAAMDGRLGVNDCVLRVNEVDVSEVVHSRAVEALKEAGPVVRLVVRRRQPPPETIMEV
# Test: holdup assay
# Design: key: below the threshold = too weak to quantify, mostly under pKd 3.1 to 4
# Details: plain residues with an end cap or a label only (N-terminal biotin on a linker: ado-ado)
row,Binder,pKd
1,B1,3.55
2,B2,3.5
3,B3,3.61

# Biological target: T3, DLG3_2, Q92796
# T3 sequence (Q92796 221-321, limits assumed, looked up): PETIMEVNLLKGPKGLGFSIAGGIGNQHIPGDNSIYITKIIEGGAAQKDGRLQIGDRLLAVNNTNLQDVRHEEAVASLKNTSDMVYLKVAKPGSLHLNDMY
# Test: holdup assay
# Design: key: below the threshold = too weak to quantify, mostly under pKd 3.1 to 4
# Details: plain residues with an end cap or a label only (N-terminal biotin on a linker: ado-ado)
row,Binder,pKd
1,B1,4.6
2,B2,4.19
3,B3,3.73

# Biological target: FRMPD2_3, Q68DX3
# Sequence (Q68DX3 1073-1166): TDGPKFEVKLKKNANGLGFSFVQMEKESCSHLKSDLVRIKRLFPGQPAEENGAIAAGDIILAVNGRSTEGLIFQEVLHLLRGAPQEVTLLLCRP
# Test: holdup assay
# Design: key: below the threshold = too weak to quantify, mostly under pKd 3.1 to 4
# Details: plain residues with an end cap or a label only (N-terminal biotin on a linker: ado-ado)
row,Binder,pKd
1,B1,below the threshold
2,B2,3.49
3,B3,3.5

# Biological target: GRID2IP_1, A4D2P6
# Sequence (A4D2P6 1-87): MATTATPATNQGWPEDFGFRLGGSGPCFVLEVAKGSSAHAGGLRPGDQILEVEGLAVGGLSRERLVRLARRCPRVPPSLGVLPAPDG
# Test: holdup assay
# Design: key: below the threshold = too weak to quantify, mostly under pKd 3.1 to 4
# Details: plain residues with an end cap or a label only (N-terminal biotin on a linker: ado-ado)
row,Binder,pKd
1,B1,below the threshold
2,B2,below the threshold
3,B3,below the threshold

# Biological target: Inadl_3, Q8NI35
# Sequence (Q8NI35 359-469): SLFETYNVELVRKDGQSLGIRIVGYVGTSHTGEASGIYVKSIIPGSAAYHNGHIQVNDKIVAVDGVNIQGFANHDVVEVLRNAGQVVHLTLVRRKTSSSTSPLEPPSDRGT
# Test: holdup assay
# Design: key: below the threshold = too weak to quantify, mostly under pKd 3.1 to 4
# Details: plain residues with an end cap or a label only (N-terminal biotin on a linker: ado-ado)
row,Binder,pKd
1,B1,below the threshold
2,B2,below the threshold
3,B3,below the threshold

# Biological target: Inadl_5, Q8NI35
# Sequence (Q8NI35 673-780): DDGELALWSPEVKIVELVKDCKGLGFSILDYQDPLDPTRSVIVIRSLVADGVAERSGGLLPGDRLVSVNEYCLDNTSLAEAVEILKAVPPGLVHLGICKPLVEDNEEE
# Test: holdup assay
# Design: key: below the threshold = too weak to quantify, mostly under pKd 3.1 to 4
# Details: plain residues with an end cap or a label only (N-terminal biotin on a linker: ado-ado)
row,Binder,pKd
1,B1,below the threshold
2,B2,below the threshold
3,B3,3.52

# Biological target: LDB3, O75112
# Sequence (O75112 1-94): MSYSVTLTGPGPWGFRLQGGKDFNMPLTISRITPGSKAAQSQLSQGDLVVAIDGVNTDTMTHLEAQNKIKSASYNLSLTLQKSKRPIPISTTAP
# Test: holdup assay
# Design: key: below the threshold = too weak to quantify, mostly under pKd 3.1 to 4
# Details: plain residues with an end cap or a label only (N-terminal biotin on a linker: ado-ado)
row,Binder,pKd
1,B1,below the threshold
2,B2,below the threshold
3,B3,below the threshold

# Biological target: T4, LIN7B, Q9HAP6
# T4 sequence (Q9HAP6 88-185, limits assumed, looked up): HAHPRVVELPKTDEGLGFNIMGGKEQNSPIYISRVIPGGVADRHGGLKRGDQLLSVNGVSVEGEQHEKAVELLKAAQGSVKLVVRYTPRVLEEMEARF
# Test: holdup assay
# Design: key: below the threshold = too weak to quantify, mostly under pKd 3.1 to 4
# Details: plain residues with an end cap or a label only (N-terminal biotin on a linker: ado-ado)
row,Binder,pKd
1,B1,below the threshold
2,B2,3.74
3,B3,below the threshold

# Biological target: T5, MPDZ_10, O75970
# T5 sequence (O75970 1624-1722, limits assumed, looked up): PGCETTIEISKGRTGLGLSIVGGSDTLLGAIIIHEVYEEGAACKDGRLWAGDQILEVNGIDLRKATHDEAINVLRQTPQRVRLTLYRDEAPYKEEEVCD
# Test: holdup assay
# Design: key: below the threshold = too weak to quantify, mostly under pKd 3.1 to 4
# Details: plain residues with an end cap or a label only (N-terminal biotin on a linker: ado-ado)
row,Binder,pKd
1,B1,below the threshold
2,B2,3.57
3,B3,3.59

# Biological target: T6, MPDZ_12, O75970
# T6 sequence (O75970 1857-1958, limits assumed, looked up): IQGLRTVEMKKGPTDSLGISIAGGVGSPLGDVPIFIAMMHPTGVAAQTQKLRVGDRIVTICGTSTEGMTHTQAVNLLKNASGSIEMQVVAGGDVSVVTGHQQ
# Test: holdup assay
# Design: key: below the threshold = too weak to quantify, mostly under pKd 3.1 to 4
# Details: plain residues with an end cap or a label only (N-terminal biotin on a linker: ado-ado)
row,Binder,pKd
1,B1,below the threshold
2,B2,3.61
3,B3,below the threshold

# Biological target: T7, MPDZ_5, O75970
# T7 sequence (O75970 695-796, limits assumed, looked up): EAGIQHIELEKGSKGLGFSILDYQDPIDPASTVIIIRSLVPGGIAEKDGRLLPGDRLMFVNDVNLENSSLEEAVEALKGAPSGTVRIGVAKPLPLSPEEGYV
# Test: holdup assay
# Design: key: below the threshold = too weak to quantify, mostly under pKd 3.1 to 4
# Details: plain residues with an end cap or a label only (N-terminal biotin on a linker: ado-ado)
row,Binder,pKd
1,B1,below the threshold
2,B2,below the threshold
3,B3,below the threshold

# Biological target: T8, NHERF3_3, Q5T2W1
# T8 sequence (Q5T2W1 238-333, limits assumed, looked up): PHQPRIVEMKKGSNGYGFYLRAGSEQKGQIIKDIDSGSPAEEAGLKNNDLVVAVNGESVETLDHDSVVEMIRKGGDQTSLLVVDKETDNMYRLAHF
# Test: holdup assay
# Design: key: below the threshold = too weak to quantify, mostly under pKd 3.1 to 4
# Details: plain residues with an end cap or a label only (N-terminal biotin on a linker: ado-ado)
row,Binder,pKd
1,B1,below the threshold
2,B2,below the threshold
3,B3,below the threshold

# Biological target: NHERF4_2, Q86UT5
# Sequence (Q86UT5 220-308): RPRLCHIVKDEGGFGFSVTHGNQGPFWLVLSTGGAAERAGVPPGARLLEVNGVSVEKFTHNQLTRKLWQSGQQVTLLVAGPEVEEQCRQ
# Test: holdup assay
# Design: key: below the threshold = too weak to quantify, mostly under pKd 3.1 to 4
# Details: plain residues with an end cap or a label only (N-terminal biotin on a linker: ado-ado)
row,Binder,pKd
1,B1,below the threshold
2,B2,below the threshold
3,B3,3.55

# Biological target: NHERF4_4, Q86UT5
# Sequence (Q86UT5 464-550): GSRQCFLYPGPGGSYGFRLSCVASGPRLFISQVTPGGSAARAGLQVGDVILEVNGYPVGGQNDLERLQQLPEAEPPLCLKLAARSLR
# Test: holdup assay
# Design: key: below the threshold = too weak to quantify, mostly under pKd 3.1 to 4
# Details: plain residues with an end cap or a label only (N-terminal biotin on a linker: ado-ado)
row,Binder,pKd
1,B1,below the threshold
2,B2,below the threshold
3,B3,3.99

# Biological target: T9, PDZRN3_1, Q9UPQ7
# T9 sequence (Q9UPQ7 244-349, limits assumed, looked up): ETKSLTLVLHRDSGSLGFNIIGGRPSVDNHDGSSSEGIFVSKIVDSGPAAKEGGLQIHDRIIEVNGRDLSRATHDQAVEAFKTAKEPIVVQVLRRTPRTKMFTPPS
# Test: holdup assay
# Design: key: below the threshold = too weak to quantify, mostly under pKd 3.1 to 4
# Details: plain residues with an end cap or a label only (N-terminal biotin on a linker: ado-ado)
row,Binder,pKd
1,B1,below the threshold
2,B2,below the threshold
3,B3,4.36

# Biological target: T10, RAPGEF6, Q8TEU7
# T10 sequence (Q8TEU7 525-625, limits assumed, looked up): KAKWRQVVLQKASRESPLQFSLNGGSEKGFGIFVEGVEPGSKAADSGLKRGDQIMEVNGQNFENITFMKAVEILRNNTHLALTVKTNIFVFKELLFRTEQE
# Test: holdup assay
# Design: key: below the threshold = too weak to quantify, mostly under pKd 3.1 to 4
# Details: plain residues with an end cap or a label only (N-terminal biotin on a linker: ado-ado)
row,Binder,pKd
1,B1,below the threshold
2,B2,below the threshold
3,B3,below the threshold

# Biological target: SCRIB_1, Q14160
# Sequence (Q14160 718-814): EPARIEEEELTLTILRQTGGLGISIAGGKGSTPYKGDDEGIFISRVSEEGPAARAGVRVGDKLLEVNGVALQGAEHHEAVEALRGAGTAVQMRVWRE
# Test: holdup assay
# Design: key: below the threshold = too weak to quantify, mostly under pKd 3.1 to 4
# Details: plain residues with an end cap or a label only (N-terminal biotin on a linker: ado-ado)
row,Binder,pKd
1,B1,3.88
2,B2,below the threshold
3,B3,4.94

# Biological target: T11, SIPA1L2, Q9P2F8
# T11 sequence (Q9P2F8 945-1036, limits assumed, looked up): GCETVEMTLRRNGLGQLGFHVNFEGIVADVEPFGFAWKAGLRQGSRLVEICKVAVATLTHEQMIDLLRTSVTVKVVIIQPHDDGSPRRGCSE
# Test: holdup assay
# Design: key: below the threshold = too weak to quantify, mostly under pKd 3.1 to 4
# Details: plain residues with an end cap or a label only (N-terminal biotin on a linker: ado-ado)
row,Binder,pKd
1,B1,below the threshold
2,B2,below the threshold
3,B3,below the threshold

# Biological target: T12, SNTG2, Q9NY99
# T12 sequence (Q9NY99 68-166, limits assumed, looked up): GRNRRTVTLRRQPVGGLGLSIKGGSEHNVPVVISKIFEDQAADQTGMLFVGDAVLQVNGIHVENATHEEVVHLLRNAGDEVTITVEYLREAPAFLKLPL
# Test: holdup assay
# Design: key: below the threshold = too weak to quantify, mostly under pKd 3.1 to 4
# Details: plain residues with an end cap or a label only (N-terminal biotin on a linker: ado-ado)
row,Binder,pKd
1,B1,below the threshold
2,B2,below the threshold
3,B3,4.23

# Biological target: SNX27, Q96L92
# Test: holdup assay
# Design: key: below the threshold = too weak to quantify, mostly under pKd 3.1 to 4
# Details: plain residues with an end cap or a label only (N-terminal biotin on a linker: ado-ado)
row,Binder,pKd
1,B1,below the threshold
2,B2,below the threshold
3,B3,4.93

# Biological target: TJP1_3, Q07157
# Sequence (Q07157 416-512): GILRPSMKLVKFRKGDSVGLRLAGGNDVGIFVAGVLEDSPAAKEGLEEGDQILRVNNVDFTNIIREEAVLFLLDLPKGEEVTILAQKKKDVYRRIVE
# Test: holdup assay
# Design: key: below the threshold = too weak to quantify, mostly under pKd 3.1 to 4
# Details: plain residues with an end cap or a label only (N-terminal biotin on a linker: ado-ado)
row,Binder,pKd
1,B1,below the threshold
2,B2,3.62
3,B3,below the threshold
